Patent US10857209B2, “Lysosomal acid lipase and PPAR gamma ligands as immune therapies for cancer treatment” (Indiana University Research and Technology Corporation, priority 2016, dated 2020)

Legend:
[1] = tested on: B16 melanoma cells; assay: In vitro co-culture of pre-treated MDSCs and B16 melanoma cells; format: cell-based, mouse; conditions: lal−/− Ly6G+ cells pre-treated 20 μmol/L 24 hours; 72 hours co-culture; vs ethanol
Description: Ethanol or 20 μmol/L 9-HODE pre-treated (for 24 hours) MDSCs (5×10^5) and B16 melanoma cells (5×10^3) were mixed, and seeded into a well of 96-well plates in DMEM supplemented with 10% FBS. Seventy-two hours later, unattached MDSCs were removed by washing with PBS, and the number of attached B16 melanoma cells was counted. Morphologically, MDSCs are much smaller than B16 melanoma cells for exclusion.

[2] = tested on: B16 melanoma cells; assay: Transwell assay, effect of MDSC-secreted cytokines on melanoma cell proliferation; format: cell-based, mouse; conditions: pre-treated lal−/− Ly6G+ cells in upper chamber; 72 hours
Description: To observe the effect of MDSCs-secreted cytokines on melanoma cell proliferation, transwell assay was performed with 0.4-μm-pore 6.5-mm diameter Transwell plates (Corning) to separate MDSCs and B16 melanoma cells. One million pre-treated MDSCs in 200 μL media were seeded into the upper chamber of the plates, while 2×10^4 melanoma cells in 500 μL media were placed in the lower chamber. After 72 hours' culture, the transwells were removed, and the number of B16 melanoma cells in the lower chamber was counted.

[3] = tested on: CD11b+Ly6G+, CD4+, CD8+, B220+ cells; assay: Flow cytometry of immune cells in organs of LAP-Tg/KO mice; format: in vivo, mouse
Description: Single-cell suspensions from the bone marrow, spleen, blood, liver, and lung were prepared and analyzed as described in Qu et al., Am J Pathol 2009, 174:944-956; Qu et al., Am J Pathol 2010, 176:2394-2404; Qu et al., J Immunol 2009, 182:1648-1659). Approximately 1×10^6 cells from various organs were blocked with FcR blocking antibodies in flow cytometry buffer (BD Biosciences, San Jose, Calif.) followed by incubation with isotype control or surface specific primary antibodies. Anti-CD11b (M1/70) PE-Cyanine7, anti-Ly6G (RB6-8c5) allophycocyanin-eFluor 780, anti-CD4 fluorescein isothiocyanate, anti-CD8 […], and anti-B220 allophycocyanin were purchased from e-Biosciences (San Diego, Calif.). Cells were analyzed on a LSRII machine (BD Biosciences). Data were analyzed using the BD FACStation software (CellQuest Pro version 2.2.1, BD Bio-sciences). The total gated number of positive cells (approximately 30,000 events) was calculated as the percentage of total gated viable cells. Quadrants were assigned using isotype control monoclonal antibody.

[4] = tested on: B16 melanoma cells; assay: B16 melanoma metastasis in CCSP-Tg/KO mice; format: in vivo, mouse; conditions: lung epithelial-specific expression in lal−/− mice; 5×10^5 cells i.v., two weeks
Description: For the tumor metastasis model, 5×10^5 B16 melanoma cells in 200 μL PBS were injected into the mice via tail vein. Two weeks after the injection, the mice were sacrificed and the lungs were harvested for examination of metastasis.

[5] = tested on: CD4+ T cells; assay: T cell proliferation assay with BALF cells of CCSP-Tg/KO mice; format: cell-based, mouse; conditions: BALF cells from doxycycline-treated CCSP-Tg/KO mice; BALF cells:CD4+ T cells 1:5, 4 days
Description: To determine the immunosuppressive effects of BALF cells, BALF was harvested by PBS. After the centrifugation, the resulting cell pellets were collected and used. CD4^+ T cells were prepared and CFSE labeled as we previously described (15). Labeled CD4^+ T cells were co-cultured with BALF cells in 96-well plates pre-coated with anti-CD3 monoclonal antibody (mAb) (2 μg/mL) and anti-CD28 mAb (5 μg/mL) at 37° C., 5% CO2 for 4 days. The ratio of BALF cells:CD4^+ T cells was 1:5. Proliferation of CD4^+ T cells was evaluated as CFSE dilution by FACS.

[6] = tested on: LLC or B16 melanoma cells; assay: In vitro BALF treatment of tumor cells (proliferation, wound healing); format: cell-based, mouse
Description: BALF was harvested by 1 mL PBS, and cells were removed by centrifugation. To determine the effect of BALF on tumor cell proliferation, B16 melanoma or LLC cells (5×10^3) were seeded into a well of 96-well plates in 100 μL DMEM supplemented with 10% FBS, and then treated with 100 μL BALF harvested from lal^+/+, lal^−/− or CCSP-Tg/KO triple mice. Seventy-two hours later, the number of B16 melanoma or LLC cells was counted.
To analyze the effects of BALF on tumor cell or EC migration, in vitro wound healing assays were performed. Briefly, tumor cells or ECs were seeded at a density of 1.5×10^5 cells/well into a 24-well plate and incubated overnight to form a confluent monolayer. Scratch was created by scraping the cell monolayer in a straight line with a p200 pipet tip. After washing 3 times with PBS, the medium was changed with 250 μL DMEM containing 10% FBS and 5 μg/mL mitomycin C (Sigma-Aldrich). Then 250 μL BALF from lal^+/+, lal^−/− or CCSP-Tg/KO triple mice were added to the well. Cells were kept on culture at 37° C., 5% CO2. Images were taken at 0 and 15 hours after creating the scratch. Migration was estimated by measuring the distances from one side of the scratch to the other side using Image Pro-Plus software (Media Cybernetics, Rockville, Md., USA).

[7] = doxycycline-untreated LAP-Tg/KO triple mice (hLAL on)

Molecule	proliferation of B16 melanoma cells upon co-culture [1]	number of B16 melanoma cells in lower chamber [2]	CD11b+Ly6G+ cell expansion in blood, spleen, lung, bone marrow [3, 7]	percentage and total number of CD11b+Ly6G+ cells in the liver [3, 7]	CD4+ T cells in blood, lung and spleen ([3]; hepatocyte-specific expression, LAP-Tg/KO triple mice)	B16 melanoma cell metastasis in the lung [4]	inhibition of T cell proliferation by BALF cells [5]	tumor cell proliferation in vitro ([6]; LLC or B16 cells cultured 72 hours with BALF from doxycycline-treated CCSP-Tg/KO mice)	tumor cell migration in vitro ([6]; LLC or B16 cells, wound healing 15 hours, BALF from doxycycline-treated CCSP-Tg/KO mice, mitomycin C)
9-hydroxyoctadecadienoic acid [9-HODE]	significantly decreased proliferation of B16 melanoma cells	significantly less	–	–	–	–	–	–	–
hLAL: human lysosomal acid lipase expressed from a doxycycline-controlled tissue-specific transgene in lal−/− mice; never administered as a protein (protein, left off: small tags and cut ends, human lysosomal acid lipase expressed from a doxycycline-controlled tissue-specific transgene in lal−/− mice; never administered as a protein) GPKPVVFLQHGLLADSSNWVTNLANSSLGFILADAGFDVWMGNSRGNTWSRKHKTLSVSQDEFWAFSYDEMAKYDLPASINFILNKTGQEQVYYVGHSQGTTIGFIAFSQIPELAKRIKMFFALGPVASVAFCTSPMAKLGRLPDHLIKDLFGDKEFLPQSAFLKWLGTHVCTHVILKELCGNLCFLLCGFNERNLNMSRVDVYTTHSPAGTSVQNMLHWSQAVKFQKFQAFDWGSSAKNYFHYNQSYPPTYNVKDMLVPTAVWSGGHDWLADVYDVNILLTQITNLVFHESIPEWEHLDFIWGLDAPWRLYNKIINLMRKYQ	–	–	reduction of CD11b^+Ly6G^+ cell expansion was also observed in the blood, spleen, and lung, but not in the bone marrow	decreased to the levels of wild-type mice	increased CD4^+ T cells	reduced B16 melanoma cell metastasis	reduced inhibition on T cell proliferation	reduced	reduced
